Patent US20190225703A1 (INNATE PHARMA, published 2019)
Substitutions are numbered along the chain they refer to.

Key:
[1] = target: T1, human CD73 (ecto-5'-nucleotidase) expressed at the cell surface (human, UniProt P21589 27-549); assay: flow cytometry titration on MDA-MB-231 cells, endogenous CD73
T1 construct: Used for huCD73-expressing recombinant cell lines, MDA-MB-231 cells (endogenous CD73), HEK-293T cells with wild type CD73, and primary T and B cells; also called huCD73; wild type CD73
T1 sequence: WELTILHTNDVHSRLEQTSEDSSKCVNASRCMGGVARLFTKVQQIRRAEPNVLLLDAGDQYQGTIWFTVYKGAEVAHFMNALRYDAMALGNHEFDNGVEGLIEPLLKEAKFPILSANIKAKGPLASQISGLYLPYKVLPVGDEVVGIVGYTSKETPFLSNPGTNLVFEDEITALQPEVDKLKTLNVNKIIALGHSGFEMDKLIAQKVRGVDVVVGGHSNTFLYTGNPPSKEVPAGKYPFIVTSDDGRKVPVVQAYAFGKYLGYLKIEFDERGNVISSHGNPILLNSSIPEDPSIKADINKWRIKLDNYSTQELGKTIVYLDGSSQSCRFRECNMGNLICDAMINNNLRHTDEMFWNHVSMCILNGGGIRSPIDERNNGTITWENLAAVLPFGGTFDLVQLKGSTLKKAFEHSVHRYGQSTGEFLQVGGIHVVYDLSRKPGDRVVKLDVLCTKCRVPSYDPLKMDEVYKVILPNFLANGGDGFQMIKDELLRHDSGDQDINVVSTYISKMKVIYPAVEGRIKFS
Method: (§1) 10⁵ cells resuspended in PBS/0.2% BSA/0.02% NaN3 (named “staining buffer”) are distributed into round bottom 96W-microplates. Dose-range of anti-CD73 antibodies was added to the plates and cells are incubated for 45 min at 4° C. Cells were washed three times in staining buffer by spinning plates at 400 g for 3 min at 4° C. PE-coupled goat anti-mouse or goat anti-human IgG Fc fragment secondary antibodies (Beckman Coulter) diluted in staining buffer were added to the cells and plates are incubated for 30 additional minutes at 4° C. Cells were washed three times as described above and analyzed on an Accury C6 flow cytometer equipped with an HTFC plate reader.
(§2) Median of fluorescence vs. antibodies concentration was plotted on graphs and EC50 is calculated using GraphPad Prism program.

[2] = target: T1, human CD73 (ecto-5'-nucleotidase) …; assay: flow cytometry titration on human-CD73-expressing cell line
Method: as §1, §2

human CD73 mutant 4 = target: T2, human CD73 mutant 4 (human, UniProt P21589 27-549); assay: flow cytometry titration on HEK-293T cells transfected with CD73 mutant 4
T2 construct: Transfected in HEK-293T cells
T2 chain: T1 sequence with K119A, K121A, S126H, S129A, Y135S, E177A, K180A
Method: Anti-CD73 antibodies are tested for their binding to each mutant by flow cytometry. A first experiment is performed to determine antibodies that lose their binding to one or several mutants at one concentration. To confirm a loss of binding, titration of antibodies is done on antibodies for which binding seemed to be affected by the CD73 mutations (1-0.1-0.01-0.001 μg/ml).

[3] = target: T3, recombinant human CD73-His extracellular domain protein, soluble dimer (human, UniProt P21589 27-547); assay: SPR (Biacore T100, 25 °C), antibody captured on Protein-A, soluble dimeric CD73 injected 1.23 to 300 nM, 1:1 kinetic model, bivalent affinity
T3 construct: also called huCD73 protein; human recombinant soluble dimeric CD73
T3 sequence: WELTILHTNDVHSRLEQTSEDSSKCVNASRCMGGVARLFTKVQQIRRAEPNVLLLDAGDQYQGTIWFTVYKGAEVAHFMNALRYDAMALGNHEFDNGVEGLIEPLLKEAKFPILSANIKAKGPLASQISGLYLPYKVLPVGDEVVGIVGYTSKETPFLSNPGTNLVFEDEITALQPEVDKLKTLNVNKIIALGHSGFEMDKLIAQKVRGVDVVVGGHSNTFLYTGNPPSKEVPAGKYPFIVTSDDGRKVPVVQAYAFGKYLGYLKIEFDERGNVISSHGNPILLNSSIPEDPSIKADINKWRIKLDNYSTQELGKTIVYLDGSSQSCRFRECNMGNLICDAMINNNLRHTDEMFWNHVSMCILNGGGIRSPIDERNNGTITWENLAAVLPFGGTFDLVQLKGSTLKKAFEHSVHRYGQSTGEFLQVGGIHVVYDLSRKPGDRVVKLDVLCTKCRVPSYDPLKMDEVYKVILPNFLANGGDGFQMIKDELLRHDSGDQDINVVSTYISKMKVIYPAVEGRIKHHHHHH
Method: SPR measurements were performed on a Biacore T100 apparatus (Biacore GE Healthcare) at 25° C. In all Biacore experiments HBS-EP+(Biacore GE Healthcare) and NaOH 10 mM served as running buffer and regeneration buffer respectively. Sensorgrams were analyzed with Biacore T100 Evaluation software. Protein-A was purchase from (GE Healthcare). Human soluble dimeric CD73 proteins were cloned, produced and purified at Innate Pharma.
Protein-A proteins were immobilized covalently to carboxyl groups in the dextran layer on a Sensor Chip CMS. The chip surface was activated with EDC/NHS (N-ethyl-N′-(3-dimethylaminopropyl) carbodiimide hydrochloride and N-hydroxysuccinimide (Biacore GE Healthcare). Protein-A was diluted to 10 μg/ml in coupling buffer (10 mM acetate, pH 5.6) and injected until the appropriate immobilization level was reached (i.e. 2000 RU). Deactivation of the remaining activated groups was performed using 100 mM ethanolamine pH 8 (Biacore GE Healthcare).
Affinity study was carried out according to a standard Capture-Kinetic protocol recommended by the manufacturer (Biacore GE Healthcare kinetic wizard). Serial dilutions of human recombinant soluble dimeric CD73 proteins, ranging from 1.23 to 300 nM were sequentially injected over the captured anti-CD73 antibodies and allowed to dissociate for 10 min before regeneration. […]

B1: antibody 7H10 (antibody, human IgG1, V domains shown)
VH: DVQLQESGPGLVKPSQSLSLTCTVTGYSITSDYAWNWIRQFPGNKLEWMGYIIYSGSTSYNPSLNSRISITRDTSKNQFFLQLNSVTTEDTATYYCAREAYLYFDYWGQGTTLTVSS
VL: DIQMTQTTSSLSASLGDRVTISCRASQDINNYLNWYQQKPDGTVKLLIYYTSRLHSGVPSRFSGSGSGTDYSLTISNLEREDVATYFCQQGNTLPWTFGGGTKLEIK
EC50 [1]: 0.054 µg/mL
fold lower EC50 than AD2 [1]: ~8 fold
EC50 [2]: 0.187 µg/mL
EC50 (read off the curve) (human CD73 mutant 4): ~0.2 µg/mL
Kd [3]: 0.527 nM
